T1: BCMA (Homo sapiens (Human), UniProt Q02223 1-54, limits assumed)
T1 sequence: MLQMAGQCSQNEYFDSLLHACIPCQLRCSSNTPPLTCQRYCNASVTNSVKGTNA


Biological target: T1, BCMA
Experiment: ELISA, format not described
Parameters: unit not given here

Binder	ELISA_avg
D-domain SEQ ID NO: 172 (designed binder) MGSWNEFRLRLWAITERLRALGGSEAELAAFEKEIAAFESELQAYKGKGNPEVECLRAEAAWIRTMLQAYRHN	3.87
D-domain SEQ ID NO: 173 (designed binder) MGSWYEFWLRLSAISYRLQALGGSEAELAAFEKEIAAFESELQAYKGKGNPEVEWLRKEAAEIRSWLQAYRHN	14.5
D-domain SEQ ID NO: 174 (designed binder) MGSWYEFQLRLWAIHWRLIALGGSEAELAAFEKEIAAFESELQAYKGKGNPEVEWLRMRAAEIRNELQAYRHN	20.6
D-domain SEQ ID NO: 175 (designed binder) MGSWYEFAHRLEAIEWRLIALGGSEAELAAFEKEIAAFESELQAYKGKGNPEVEELRQYAAAIRNYLQAYRHN	9.48
D-domain SEQ ID NO: 176 (designed binder) MGSWYEFDTRLGAIRNRLGALGGSEAELAAFEKEIAAFESELQAYKGKGNPEVEWLRFQAAYIRFLLQAYRHN	13.9
D-domain SEQ ID NO: 177 (designed binder) MGSWYEFWVRLTAIRWRLEALGGSEAELAAFEKEIAAFESELQAYKGKGNPEVEWLREQAASIRWVLQAYRHN	5.72
D-domain SEQ ID NO: 178 (designed binder) MGSWFEFDRRLKAIDRRLMALGGSEAELAAFEKEIAAFESELQAYKGKGNPEVEWLRMQAAIIRNYLQAYRHN	6.16
D-domain SEQ ID NO: 179 (designed binder) MGSWVEFWERLDAIDNRLGALGGSEAELAAFEKEIAAFESELQAYKGKGNPEVEWLRWHAAYIRGYLQAYRHN	11.4
D-domain SEQ ID NO: 180 (designed binder) MGSWAEFWDRLDAIDSRLNALGGSEAELAAFEKEIAAFESELQAYKGKGNPEVEYLREWAAYIRGYLQAYRHN	18.2
D-domain SEQ ID NO: 181 (designed binder) MGSWAEFDLRLRAIAKRLVALGGSEAELAAFEKEIAAFESELQAYKGKGNPEVEMLRLDAAYIRGVLQAYRHN	4.09
D-domain SEQ ID NO: 182 (designed binder) MGSWSEFWDRLYAIRIRLDALGGSEAELAAFEKEIAAFESELQAYKGKGNPEVEKLRSVAARIRNWLQAYRHN	12.5
D-domain SEQ ID NO: 183 (designed binder) MGSWSEFWFRLGAIRNRLDALGGSEAELAAFEKEIAAFESELQAYKGKGNPEVEKLRDVAAHIRHWLQAYRHN	14.9
D-domain SEQ ID NO: 184 (designed binder) MGSWSEFNDRLDAIRWRLDALGGSEAELAAFEKEIAAFESELQAYKGKGNPEVEWLRQVAATIRYRLQAYRHN	13.6
D-domain SEQ ID NO: 203 (designed binder) MGSWTEFWTRLNAIYERLDALGGSEAELAAFEKEIAAFESELQAYKGKGNPEVEKLRFTAASIRMYLQAYRHN	8.43
D-domain SEQ ID NO: 210 (designed binder) MGSWMEFWDRLYAIEFRLFALGGSEAELAAFEKEIAAFESELQAYKGKGNPEVEKLRRVAATIRNELQAYRHN	11.7
D-domain SEQ ID NO: 211 (designed binder) MGSWTEFWERLYAIEYRLFALGGSEAELAAFEKEIAAFESELQAYKGKGNPEVEKLRSVAATIRYELQAYRHN	12.7
D-domain SEQ ID NO: 212 (designed binder) MGSWNEFWERLYAIELRLFALGGSEAELAAFEKEIAAFESELQAYKGKGNPEVEKLRMTAAYIRNELQAYRHN	9.95
D-domain SEQ ID NO: 213 (designed binder) MGSWYEFWKRLYAIEYRLFALGGSEAELAAFEKEIAAFESELQAYKGKGNPEVEALRKVAAKIREQLQAYRHN	14.8
D-domain SEQ ID NO: 215 (designed binder) MGSWHEFWDRLYAIEFRLFALGGSEAELAAFEKEIAAFESELQAYKGKGNPEVESLRQVAAKIRWHLQAYRHN	7.3
D-domain SEQ ID NO: 216 (designed binder) MGSWDEFEFRLGALRWRLIALGGSEAELAAFEKEIAAFESELQAYKGKGNPEVEYLRFGAAHIRHILQAYRHN	9.2
D-domain SEQ ID NO: 217 (designed binder) MGSWTEFYHRLYAIRERLSALGGSEAELAAFEKEIAAFESELQAYKGKGNPEVEYLRFGAAHIRHLLQAYRHN	9.63
D-domain SEQ ID NO: 218 (designed binder) MGSWVEFETRLDAIRMRLGALGGSEAELAAFEKEIAAFESELQAYKGKGNPEVEYLRFGAAHIRALLQAYRHN	14.1
D-domain SEQ ID NO: 219 (designed binder) MGSWGEFDVRLFAIRERLSALGGSEAELAAFEKEIAAFESELQAYKGKGNPEVEYLRGYAAQIRSFLQAYRHN	7.35

Binder	ELISA_avg
D-domain SEQ ID NO: 220 (designed binder) MGSWVEFDERLSAIRERLDALGGSEAELAAFEKEIAAFESELQAYKGKGNPEVEYLRLYAAQIRVFLQAYRHN	5.61
D-domain SEQ ID NO: 221 (designed binder) MGSWSEFDGRLGAIWDRLYALGGSEAELAAFEKEIAAFESELQAYKGKGNPEVEYLRDRAAQIREFLQAYRHN	10
D-domain SEQ ID NO: 222 (designed binder) MGSWGEFEGRLHAIRSRLSALGGSEAELAAFEKEIAAFESELQAYKGKGNPEVEVLRGYAAWIRALLQAYRHN	6.17
D-domain SEQ ID NO: 223 (designed binder) MGSWGEFNGRLGAIRERLQALGGSEAELAAFEKEIAAFESELQAYKGKGNPEVEFLRAYAASIRAVLQAYRHN	4.95
D-domain SEQ ID NO: 224 (designed binder) MGSWWEFTFRLAAIEFRLEALGGSEAELAAFEKEIAAFESELQAYKGKGNPEVEDLRAIAAEIRKSLQAYRHN	5.75
D-domain SEQ ID NO: 225 (designed binder) MGSWDEFQFRLAAIGFRLGALGGSEAELAAFEKEIAAFESELQAYKGKGNPEVEVLRRQAARIRHLLQAYRHN	6.16
D-domain SEQ ID NO: 226 (designed binder) MGSWYEFVTRLHAIDHRLKALGGSEADLAAFEKEIAAFESELQAYKGKGNPEVEWLRFYAAGIRMNLQAYRHN	4.12
D-domain SEQ ID NO: 227 (designed binder) MGSWSIEFWRLEAIKFRLIALGGSEAELAAFEKEIAAFESELQAYKGKGNPEVEFLRVEAAAIRRVLQAYRHN	8.43
D-domain SEQ ID NO: 228 (designed binder) MGSWGEFEHRLDPSTCVWLALGGSEAELAAFEKEIAAFESELQAYKGKGNPEVEKLRRGAAVIRHWLQAYRHN	4.05
D-domain SEQ ID NO: 229 (designed binder) MGSWIEFAMRLEAIENRLTALGGSEAELAIFESMIAHFEELLQNYKGKGNPEVEALIHEAFAIHKELWAYRHN	10.7
D-domain SEQ ID NO: 230 (designed binder) MGSWNEFYQRLEAIENRLQALGGSEAELAMFEVRIALFEDMLQGYKGKGNPEVEALKQEAIAILRELIAYRHN	6.01
D-domain SEQ ID NO: 231 (designed binder) MGSWNEFYDRLRAIKKRLYALGGSEAELADFEEDIAQFEVDLQDYKGKGNPEVEALHREAHAITHELWAYRHN	12.4
D-domain SEQ ID NO: 232 (designed binder) MGSWGEFKHRLALIKWYLEALGGSEAELAHFEDWIAVFEVQLQNYKGKGNPEVEALRKEAAAIRDELQAYRHN	17.1
D-domain SEQ ID NO: 233 (designed binder) MGSWYEFKHRLAIIKWYLEALGGSEAELAKFEAWIAEFEMILQRYKGKGNPEVEALRKEAAAIRDELQAYRHN	5.5
D-domain SEQ ID NO: 234 (designed binder) MGSWYEFKHRLAIIKWYLEALGGSEAELAHFEQYIADFEGTLQKYKGKGNPEVEALRKEAAAIRDELQAYRHN	14.8
D-domain SEQ ID NO: 237 (designed binder) MGSWYNFKHRLAIIKWFLEALGGSEAELAVFEVWIADFEHQLQEYKGKGNPEVEALRKEAAAIRDELQAYRHN	16.4
D-domain SEQ ID NO: 235 (designed binder) MGSWYNFKHRLAIIKWYLEALGGSEAELARFENFIANFETQLQLYKGKGNPEVEALRKEAAAIRDELQAYRHN	6.76
D-domain SEQ ID NO: 236 (designed binder) MGSWFQFKHRLAIIKWQLEALGGSEAELAWFEQWIADFEHQLQHYKGKGNPEVEALRKEAAAIRDELQAYRHN	10.4
D-domain SEQ ID NO: 238 (designed binder) MGSWDAFKHRLALIKWYLEALGGSEAELAHFEEYIAEFESNLQSYKGKGNPEVEALRKEAAAIRDELQAYRHN	13
D-domain SEQ ID NO: 239 (designed binder) MGSWDGFKHRLALIKWYLEALGGSEAELANFENWIAEFEQRLQYYKGKGNPEVEALRKEAAAIRDELQAYRHN	23.6
D-domain SEQ ID NO: 240 (designed binder) MGSWNGFKHRLAIIKWYLEALGGSEAELASFESYIAEFESGLQEYKGKGNPEVEALRKEAAAIRDELQAYRHN	16.5
D-domain SEQ ID NO: 241 (designed binder) MGSWNSFKHRLALIKWYLEALGGSEAELATFEWYIASFESELQQYKGKGNPEVEALRKEAAAIRDELQAYRHN	10.3
